Measured values published in publication PMC11659893.

What was measured:
[1] = molecular target: Tachlorophyllase H76S/E79S/C270S triple variant (Triticum aestivum); test: SEC-MALS + other: dynamic light scattering
[2] = molecular target: Triticum aestivum chlorophyllase (Tachlorophyllase), wild type (Triticum aestivum); test: SEC-MALS + other: dynamic light scattering

stoichiometry N [1]	stoichiometry N [2]	Substance
2		Tachlorophyllase H76S/E79S/C270S triple variant (enzyme)
	2	Triticum aestivum chlorophyllase (Tachlorophyllase), wild type (enzyme)
